The text below walks through data of patent publication US20180142032A1 (Sanofi, published 2018).

Assay [1] concerns the target T1, LAMP1_mL1_hL2_mL34_ΔGYQTI (mouse; human, UniProt P11438 25-369).
T1 construct: on cells; also called pXL5988; not shown: transmembrane domain and cytoplasmic tail with GYQTI replaced by 5 Ala
T1 chain: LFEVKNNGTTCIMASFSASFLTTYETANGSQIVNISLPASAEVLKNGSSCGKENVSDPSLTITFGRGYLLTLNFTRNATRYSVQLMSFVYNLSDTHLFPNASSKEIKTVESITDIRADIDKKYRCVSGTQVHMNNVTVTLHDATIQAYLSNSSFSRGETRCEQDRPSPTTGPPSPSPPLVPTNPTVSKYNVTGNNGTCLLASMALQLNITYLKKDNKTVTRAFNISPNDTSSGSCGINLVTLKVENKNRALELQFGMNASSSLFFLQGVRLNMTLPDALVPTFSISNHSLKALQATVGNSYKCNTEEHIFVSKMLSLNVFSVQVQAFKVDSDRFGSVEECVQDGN
Put plainly: flow cytometry, transfected 293-F cells.

Assay [2] addresses T2, human LAMP1 at the cell surface (human, UniProt P11279 29-417).
T2 sequence: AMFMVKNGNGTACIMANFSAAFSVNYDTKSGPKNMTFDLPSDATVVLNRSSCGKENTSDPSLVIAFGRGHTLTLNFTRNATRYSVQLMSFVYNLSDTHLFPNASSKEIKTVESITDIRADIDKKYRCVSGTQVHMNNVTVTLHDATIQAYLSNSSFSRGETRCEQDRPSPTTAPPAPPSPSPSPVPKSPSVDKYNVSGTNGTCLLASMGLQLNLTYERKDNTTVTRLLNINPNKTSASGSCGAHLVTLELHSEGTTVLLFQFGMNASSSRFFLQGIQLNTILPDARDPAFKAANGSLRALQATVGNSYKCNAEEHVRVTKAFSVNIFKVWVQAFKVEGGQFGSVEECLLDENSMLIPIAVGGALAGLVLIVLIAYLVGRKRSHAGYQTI
Kind of assay: cell-based or functional assay.

The target of a further assay is T3, LAMP1_mL1_hL234_ΔGYQTI (mouse; human).
T3 construct: on cells; also called pXL5668
T3 chain: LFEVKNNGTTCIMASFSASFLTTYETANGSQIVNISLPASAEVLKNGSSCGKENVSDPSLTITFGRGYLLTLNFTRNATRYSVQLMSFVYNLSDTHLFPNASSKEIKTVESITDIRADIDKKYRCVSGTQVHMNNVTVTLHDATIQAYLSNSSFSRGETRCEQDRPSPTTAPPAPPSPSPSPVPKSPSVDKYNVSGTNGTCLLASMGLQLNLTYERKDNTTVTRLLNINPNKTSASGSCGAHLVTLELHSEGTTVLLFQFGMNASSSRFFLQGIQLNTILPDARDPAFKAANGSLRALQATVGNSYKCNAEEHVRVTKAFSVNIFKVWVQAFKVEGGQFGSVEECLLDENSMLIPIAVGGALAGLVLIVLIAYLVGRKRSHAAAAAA
Kind of assay: flow cytometry, transfected 293-F cells. For orientation: Flow cytometry measures light scatter and fluorescence of single cells or particles in a stream.

The target in assay [3] is T4, LAMP1::histag (human, UniProt P11279 29-382).
T4 construct: extracellular domain without signal peptide, C-terminal 6 His tag, made in HEK293 cells; also called recombinant human LAMP1; human LAMP1 (29-382)
T4 sequence: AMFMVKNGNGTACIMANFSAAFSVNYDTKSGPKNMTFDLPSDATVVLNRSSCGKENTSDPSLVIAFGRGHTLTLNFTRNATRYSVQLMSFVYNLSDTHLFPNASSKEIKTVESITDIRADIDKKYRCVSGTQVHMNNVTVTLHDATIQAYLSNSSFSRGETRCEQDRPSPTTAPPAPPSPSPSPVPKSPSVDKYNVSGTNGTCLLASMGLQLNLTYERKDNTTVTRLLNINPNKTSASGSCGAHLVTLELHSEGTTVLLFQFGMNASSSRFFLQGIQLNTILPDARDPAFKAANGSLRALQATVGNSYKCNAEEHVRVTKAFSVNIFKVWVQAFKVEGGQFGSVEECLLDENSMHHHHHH
Put plainly: ELISA. In general terms: In an ELISA, binding on a coated surface is turned into a signal by an enzyme label.

Assay [4] has as its target T5, cLAMP1::histag (cynomolgus monkey, UniProt P11279 29-380 (human entry)).
T5 construct: extracellular domain with C-terminal tag that includes 6 His; also called cynomolgus LAMP1 (27-380); cynomolgus monkey LAMP1 protein
T5 chain: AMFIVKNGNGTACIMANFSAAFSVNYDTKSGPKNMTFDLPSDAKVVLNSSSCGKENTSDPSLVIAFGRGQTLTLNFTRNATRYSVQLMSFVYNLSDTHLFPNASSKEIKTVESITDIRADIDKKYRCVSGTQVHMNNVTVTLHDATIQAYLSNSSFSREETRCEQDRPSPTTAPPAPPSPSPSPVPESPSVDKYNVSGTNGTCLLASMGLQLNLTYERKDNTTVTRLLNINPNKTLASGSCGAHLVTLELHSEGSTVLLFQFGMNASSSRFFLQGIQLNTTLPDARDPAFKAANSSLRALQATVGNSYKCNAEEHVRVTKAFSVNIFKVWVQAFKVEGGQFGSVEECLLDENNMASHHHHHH
Put plainly: ELISA.

Assay [5] deals with T6, recombinant human LAMP2 with a C-terminal 10 His-tag (human, UniProt P13473 29-375).
T6 construct: bought; also called soluble LAMP2 protein (R&D Systems 6228-LM)
Put plainly: ELISA with soluble LAMP1 or LAMP2.

In assay [6] the target is T2, human LAMP1 at the cell surface. Put plainly: flow cytometry, dissociated CR-IGR-034P colon PDX cells. The protocol: Advanced human primary colon tumor CR-IGR-034P was obtained from Patient-derived xenograft in mice. Tumor CR-IGR-034P was enzymatically dissociated using collagenase Type IV (Invitrogen; #17104-019) and deoxyribonuclease I (Invitrogen; #18047-019) for 1 h at 4° C. Cell viability was estimated by Viacount application using Guava® easyCyte™ 8HT Flow Cytometry System. […] 100 μL/well of goat anti-mouse IgG conjugated with Alexa647 (Invitrogen; # A2135) or goat anti-human IgG conjugated with Alexa488 (Invitrogen; # A11013) was added for 45 min at 4° C. and washed three times with PBS 1% BSA. The antibody binding was evaluated after centrifugation and resuspension of cells by adding 200 μl/well PBS 1% BSA and read using Guava® easyCyte™ 8HT Flow Cytometry System. EC50 values were estimated using BIOST@T-SPEED software.

Assay [7] has as its target T5, cLAMP1::histag. Put plainly: ELISA on recombinant cynomolgus LAMP1.
Assay [8] has as its target T4, LAMP1::histag. Kind of assay: ELISA on recombinant human LAMP1.
In assay [9] the target is T6, recombinant human LAMP2 with a …. Put plainly: ELISA on coated soluble human LAMP2.

A word on the EC50: it is the midpoint of the concentration-response curve.

T6 sequence (P13473 other isoform, or with tags, fused parts or gaps): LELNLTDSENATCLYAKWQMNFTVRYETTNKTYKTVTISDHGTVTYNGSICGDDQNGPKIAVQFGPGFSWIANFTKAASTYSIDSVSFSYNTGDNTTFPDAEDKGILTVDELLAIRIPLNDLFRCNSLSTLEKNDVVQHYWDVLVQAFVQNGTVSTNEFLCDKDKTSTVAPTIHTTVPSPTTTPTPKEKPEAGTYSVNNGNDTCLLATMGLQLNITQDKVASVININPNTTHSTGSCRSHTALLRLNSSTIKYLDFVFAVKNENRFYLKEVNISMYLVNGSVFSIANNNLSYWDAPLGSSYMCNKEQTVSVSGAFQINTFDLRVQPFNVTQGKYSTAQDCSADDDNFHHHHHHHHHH

B1: chMAb2 (antibody, human IgG1, kappa)
heavy: not shown
light: NIVLTQSPVSLAVSLGQRATISCRASESVDINGNTFMHWYQQKPGQSPKLVIYAASNIESGVPARFSGSGSSTDFTFTIDPVEADDVATYYCQQNIEDPWTFGGGTKVEIKRTVAAPSVFIFPPSDEQLKSGTASVVCLLNNFYPREAKVQWKVDNALQSGNSQESVTEQDSKDSTYSLSSTLTLSKADYEKHKVYACEVTHQGLSSPVTKSFNRGEC
notes: chimeric, human IgG1, Ckappa
Take B1: in [1], the binding result is listed as “no binding”. For the same molecule, in assay [2], the “ADCC EC50, NK batch 6712562616” value was 2 nM; the “ADCC EC50, NK batch 67125626389” value was 0.1 nM; the “ADCC EC50, NK batch 67125903091” value was found to be 0.5 nM. In addition, in the assay with LAMP1_mL1_hL234_ΔGYQTI, the binding result is on record as “no binding”.

B2: MAb4 (antibody, mouse IgG1, V domains shown)
VH: QVQLQQSGAELVRPGTSVKVSCKASGYAFTNYLIEWVKQRPGQGLEWIGVINPGSGGTNYNEKFKGKATLTADKSSSTAYMQLSSLTSDDSAVYFCARYRSYDWYFDVWGAGTTVTVSS
VL: DIQMTQSPASLSASVGETVTITCRVSGNIHNYLAWYQQKQGKSPQLLVYNAKTLADGVPSRFSGSGSGTQYSLKINSLQPEDFGSYYCQHFWSNPYTFGGGTKLEIK
notes: also called antibody from hybridoma 88LAMP1-2
Take B2: the 50% effective concentration (EC50) was 0.2 to 0.4 nM with LAMP1::histag [3]; 0.2 to 0.4 nM with cLAMP1::histag [4]; 1.3 nM in [6]; 0.22 nM with cLAMP1::histag [7]; 0.39 nM with LAMP1::histag [8]. For the same molecule, in assay [5], the “fold difference of EC50 (LAMP1 versus LAMP2)” value is over 100 fold. Further, in assay [9], the binding result is reported as “no binding (tested: 10 µg/mL)”.
